B1: active human recombinant MMP-2 (CalBiochem) (protein)
chain: YNFFPRKPKWDKNQITYRIIGYTPDLDPETVDDAFARAFQVWSDVTPLRFSRIHDGEADIMINFGRWEHGDGYPFDGKDGLLAHAFAPGTGVGGDSHFDDDELWTLGEGQVVRVKYGNADGEYCKFPFLFNGKEYNSCTDTGRSDGFLWCSTTYNFEKDGKYGFCPHEALFTMGGNAEGQPCKFPFRFQGTSYDSCTTEGRTDGYRWCGTTEDYDRDKKYGFCPETAMSTVGGNSEGAPCVFPFTFLGNKYESCTSAGRSDGKMWCATTANYDDDRKWGFCPDQGYSLFLVAAHEFGHAMGLEHSQDPGALMAPIYTYTKNFRLSQDDIKGIQELYGASPDIDLGTGPTPTLGPVTPEICKQDIVFDGIAQIRGEIFFFKDRFIWRTVTPRDKPMGPLLVATFWPELPEKIDAVYEAPQEEKAVFFAGNEYWIYSASTLERGYPKPLTSLGLPPDVQRVDAAFNWSKNKKTYIFAGDKFWRYNEVKKKMDPGFPKLIADAWNAIPDNLDAVVDLQGGGHSYFFKGAYYLKLENQSLKSVKFGSIKSDWLGC

Tests used:
[1] = test system: kemptide (substrate of PKA), conjugated to the bioluminescent protein Luc8 as in the method of FIG. 21b
[2] = biological target: T1, Luc8 fusion protein (Luc8-PLGVR-6xHis)
T1 chain: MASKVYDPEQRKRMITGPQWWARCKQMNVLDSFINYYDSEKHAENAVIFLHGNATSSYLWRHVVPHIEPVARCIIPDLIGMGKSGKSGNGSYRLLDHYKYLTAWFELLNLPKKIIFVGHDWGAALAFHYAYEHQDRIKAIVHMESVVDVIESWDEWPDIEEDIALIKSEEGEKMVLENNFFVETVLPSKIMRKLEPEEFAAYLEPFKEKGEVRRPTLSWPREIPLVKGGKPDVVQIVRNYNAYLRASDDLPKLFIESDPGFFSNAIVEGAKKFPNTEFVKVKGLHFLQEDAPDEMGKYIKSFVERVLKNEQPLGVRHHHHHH

| Molecule | BRET ratio after the PKA phosphorylation (method of FIG. 21b) [1] | BRET ratio before the PKA phosphorylation (method of FIG. 21b) [1] | BRET ratio after 24 hours at 22° C., MMP-2 at 20 ng/mL (~300 pM) [2] | BRET ratio at the start, MMP-2 at 20 ng/mL (~300 pM) [2] | BRET ratio before the MMP-2 cleavage (t=0); fusion protein 16 µM, MMP-2 10 µg/mL, 22° C. [2] | BRET ratio within 30 minutes of incubation with MMP-2 (10 µg/mL) [2] | BRET ratio within 2 hours of incubation with MMP-2 (10 µg/mL) [2] | NuPAGE assay [2] | decrease of the BRET ratio after 24 hours at 22° C. with MMP-2 at 20 ng/mL (~300 pM) [2] | gel electrophoresis (4-12% Bis-Tris denaturing gel, Coomassie) [2] |
| --- | --- | --- | --- | --- | --- | --- | --- | --- | --- | --- |
| Protein Kinase A (PKA) | The BRET ratio was increased from 0.15 to 0.47 after the PKA phosphorylation of the substrate kemptide | The BRET ratio was increased from 0.15 to 0.47 after the PKA phosphorylation of the substrate kemptide | – | – | – | – | – | – | – | – |
| B1 | – | – | the BRET ratio decreased by ~20% from 1.6 to 1.3 for a concentration of MMP-2 of 20 ng/mL (~300 pM) | the BRET ratio decreased by ~20% from 1.6 to 1.3 for a concentration of MMP-2 of 20 ng/mL (~300 pM) | the BRET ratio was 1.64 | Within 30 minutes, the BRET ratio dropped to 0.62 | the reaction was nearly complete within 2 hours with a BRET ratio of 0.21 | NuPAGE assay detected a protein product with a smaller size, confirming the hydrolysis by MMP-2 | the BRET ratio decreased by ~20% from 1.6 to 1.3 for a concentration of MMP-2 of 20 ng/mL (~300 pM) | Gel electrophoresis analysis confirmed the cleavage of the fusion protein by MMP-2 |

— patent US20120269734
